We go through 1 substance from patent publication US20150344565A1.

Several values for one entry are separate records, joined by “and”; a condition that tells them apart may be missing. Identical values can stand only once.

Test [1] addresses Non-glycosylated recombinant human GM-CSF expressed in E. coli (human) (UniProt P04141). Put plainly: cell-based or functional assay.
Test [2] concerns the target Glycosylated recombinant human GM-CSF expressed from human 293 cells (human) (UniProt P04141). Briefly: ELISA on GM-CSF-coated wells, glycosylated GM-CSF, exp 1. For orientation: In an ELISA, binding on a coated surface is turned into a signal by an enzyme label.
In test [3] the target is Non-glycosylated recombinant human GM-CSF expressed in E. coli (human) (UniProt P04141). Briefly: ELISA on GM-CSF-coated wells, non-glycosylated GM-CSF, exp 1.
For test [4] the target is unchanged. Put plainly: ELISA on GM-CSF-coated wells, non-glycosylated GM-CSF, exp 2.
The target of test [5] is Glycosylated recombinant human GM-CSF expressed from human 293 cells (human) (UniProt P04141). Briefly: SPR (Biacore 3000) at 37 °C, antibody captured on anti-human F(ab')2, GM-CSF as analyte, 1:1 global fit.

One may read the EC50 as the concentration needed to bring the measured effect to its halfway point. What is called Kd is the free concentration of one partner at which half of the binding sites on the other are occupied at equilibrium, for simple one-to-one binding. Broadly, the koff is a measure of how fast the partners let go of each other. As a reminder, the kon is the rate constant with which the complex forms.

Consider “Ab2, chimeric IgG1k antibody having variable regions from the mouse antibody LMM102”, for which the IC50 for inhibition of GM-CSF induced IL-8 expression (U937 cells), experiment C in test [1] is 2.2 nM and 343 ng/ml. Further, the EC50 was 0.387 nM in test [2], 0.4 nM in test [3] and 0.433 nM in test [4]. In test [5], the Kd stood at 0.0305 nM. Besides, the dissociation rate constant (koff) in test [5] came out at 2.2e-05 s⁻¹. Further, the association rate constant (kon) in test [5] was 720000 M⁻¹ s⁻¹.
